Target: GST-Rac1 (UniProt P63000)

Substance: TcdASAS (Clostridium difficile toxin A with VNN mutated to SAS: V1109S, N1110A, N1111S)
- Rac1 glucosylation in vitro (Western blot, 100 nM toxin, 3 hours): not impaired in their capacity to glucosylate Rac1 in vitro
